Measurements as given in patent publication US20090269277A1.

Experiments:
CEA = CEA (UniProt P06731); assay: SE-HPLC of 125I-TF2 mixed with a 20-fold molar excess of CEA
[1] = target: recombinant human RIIalpha (commercial sample) (human) (UniProt P13861); assay: equilibrium SE-HPLC
Sequence of recombinant human RIIalpha (commercial sample) (human) (P13861 whole entry): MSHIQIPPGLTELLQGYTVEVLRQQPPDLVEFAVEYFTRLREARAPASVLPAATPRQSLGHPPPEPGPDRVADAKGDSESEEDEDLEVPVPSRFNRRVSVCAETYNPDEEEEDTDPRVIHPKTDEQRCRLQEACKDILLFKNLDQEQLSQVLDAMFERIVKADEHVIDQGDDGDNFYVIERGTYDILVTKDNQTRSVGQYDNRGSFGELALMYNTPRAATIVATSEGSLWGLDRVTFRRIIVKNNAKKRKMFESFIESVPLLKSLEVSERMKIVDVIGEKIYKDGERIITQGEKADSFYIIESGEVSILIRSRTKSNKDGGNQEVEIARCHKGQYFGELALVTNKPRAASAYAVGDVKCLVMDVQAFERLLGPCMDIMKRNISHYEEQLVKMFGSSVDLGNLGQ

Sequence of CEA (P06731 35-685 limits assumed): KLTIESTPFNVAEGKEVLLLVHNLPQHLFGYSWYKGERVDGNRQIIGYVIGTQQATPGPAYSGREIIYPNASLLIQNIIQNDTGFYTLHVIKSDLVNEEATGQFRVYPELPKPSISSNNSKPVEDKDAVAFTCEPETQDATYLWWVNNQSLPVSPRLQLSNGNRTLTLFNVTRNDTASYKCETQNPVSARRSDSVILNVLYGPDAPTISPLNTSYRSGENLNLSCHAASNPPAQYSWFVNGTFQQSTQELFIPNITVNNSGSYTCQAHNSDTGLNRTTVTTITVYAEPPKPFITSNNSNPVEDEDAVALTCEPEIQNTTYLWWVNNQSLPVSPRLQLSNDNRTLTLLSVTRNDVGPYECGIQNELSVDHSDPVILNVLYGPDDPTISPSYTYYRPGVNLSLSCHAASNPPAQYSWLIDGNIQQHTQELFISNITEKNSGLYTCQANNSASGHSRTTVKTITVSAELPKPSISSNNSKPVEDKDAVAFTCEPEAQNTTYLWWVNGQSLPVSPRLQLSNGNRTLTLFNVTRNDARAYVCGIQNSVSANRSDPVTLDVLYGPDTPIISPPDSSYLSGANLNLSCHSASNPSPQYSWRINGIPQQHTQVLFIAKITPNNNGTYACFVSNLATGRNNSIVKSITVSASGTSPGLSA

Row | percent of labeled TF2 shifted to a high molecular weight species (CEA) | Kd [1] | Molecule
1 | 95% | – | TF2 (bispecific antibody)
2 | – | 30 nM | PKSCGGGGSGGGGSGGGGSQIEYLAKQIVDNAIQQA (Fab, part only; not given: h679 Fd and light chain, part only) [h679-Fab-AD1]
